According to patent US20150037339A1 (Regeneron, published 2015):
One block for each binder: values may come before it.

Experiments:
[1] = biological target: T1, Activin AB (human, UniProt P08476 311-426; P09529 293-407); test: SPR (Biacore), mAb captured on anti-Fc, Activin AB injected, 25 C
T1 construct: Heterodimer of one betaA and one betaB subunit; bought (R&D Systems #1006-AB-005 / #1066-AB)
T1 chain 1: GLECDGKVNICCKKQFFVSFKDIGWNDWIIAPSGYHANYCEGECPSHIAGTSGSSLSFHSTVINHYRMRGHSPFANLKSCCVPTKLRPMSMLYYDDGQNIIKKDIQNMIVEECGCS
T1 chain 2: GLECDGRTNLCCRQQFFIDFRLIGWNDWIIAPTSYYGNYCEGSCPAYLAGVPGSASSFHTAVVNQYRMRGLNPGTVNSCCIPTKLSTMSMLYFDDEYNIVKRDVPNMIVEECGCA
How it was run: (§1)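 Reported half-lives follow ln2/(60*kd) in minutes, with KD taken as kd/ka. Both rest on fits to binding data from 240 s of association and 600 s of buffer dissociation.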

[2] = biological target: T2, Activin A (human, UniProt P08476 311-426); test: cell-based or functional assay
T2 sequence: T1 chain 1

[3] = biological target: T1, Activin AB; test: cell-based or functional assay
[4] = biological target: T3, Activin AC (human, UniProt P55103 237-352); test: cell-based or functional assay
T3 sequence 1: T1 chain 1
T3 sequence 2: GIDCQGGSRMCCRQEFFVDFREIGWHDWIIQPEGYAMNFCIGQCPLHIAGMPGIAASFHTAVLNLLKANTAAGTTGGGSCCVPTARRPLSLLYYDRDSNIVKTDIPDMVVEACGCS

[5] = biological target: T1, Activin AB; test: SPR (Biacore), mAb captured on anti-Fc, Activin AB injected, 37 C
How it was run: as §1

[6] = biological target: T2, Activin A; test: SPR (Biacore 4000), captured on anti-human Fc, 200 nM ligand injected, 37 C
Method: (§2) For the binding experiment, a Biacore 4000 instrument was used. […] All Biacore binding studies were performed in HBS-T running buffer (0.01 M HEPES pH 7.4, 0.5 M NaCl, 3 mM EDTA, 0.5 mg/ml bovine serum albumin, 0.05% v/v Surfactant P20). […] All binding measurements were performed at 37° C. […] Over the captured antibody surface was injected the TGF-beta family ligands through concentrations ranging from 3.1 nM to 200 nM.

[7] = biological target: T1, Activin AB; test: as above
Method: as §2

[8] = biological target: T4, hBMP10 (human, UniProt O95393 317-424); test: as above
T4 construct: Bought protein
T4 sequence (looked up): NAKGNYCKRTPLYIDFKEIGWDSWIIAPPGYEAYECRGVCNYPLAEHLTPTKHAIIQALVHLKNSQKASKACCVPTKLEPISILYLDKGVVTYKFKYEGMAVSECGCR
Method: as §2

[9] = biological target: T5, hBMP6 (human, UniProt P22004 382-513, limits assumed); test: as above
T5 construct: Bought protein
T5 sequence (looked up): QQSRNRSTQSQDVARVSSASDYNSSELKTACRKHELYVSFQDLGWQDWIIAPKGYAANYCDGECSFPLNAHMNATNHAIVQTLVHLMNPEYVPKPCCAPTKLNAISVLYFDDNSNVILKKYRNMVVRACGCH
Method: as §2

[10] = biological target: T6, hBMP9 (human, UniProt Q9UK05 320-429); test: as above
T6 construct: Bought protein
T6 sequence (looked up): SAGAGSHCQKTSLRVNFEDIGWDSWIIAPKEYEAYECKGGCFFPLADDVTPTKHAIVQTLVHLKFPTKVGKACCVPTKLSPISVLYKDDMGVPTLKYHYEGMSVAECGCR
Method: as §2

[11] = biological target: T7, GDF11 (human, UniProt O95390 299-407); test: as above
T7 construct: Bought protein; also called hGDF11
T7 sequence (O95390 299-407 limits assumed): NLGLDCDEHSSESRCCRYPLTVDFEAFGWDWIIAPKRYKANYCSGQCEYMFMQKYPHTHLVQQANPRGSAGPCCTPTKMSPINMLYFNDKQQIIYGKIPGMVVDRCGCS
Method: as §2

[12] = biological target: T8, hBMP2 (human, UniProt P12643 283-396); test: as above
T8 construct: Bought protein; also called BPM2
T8 sequence (P12643 283-396 limits assumed): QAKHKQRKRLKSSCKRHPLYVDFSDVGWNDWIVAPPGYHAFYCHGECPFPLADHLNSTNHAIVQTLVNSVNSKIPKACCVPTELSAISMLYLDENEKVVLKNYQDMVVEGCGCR
Method: as §2

[13] = biological target: T9, hBMP7 (human, UniProt P18075 293-431); test: as above
T9 construct: Bought protein
T9 sequence (looked up): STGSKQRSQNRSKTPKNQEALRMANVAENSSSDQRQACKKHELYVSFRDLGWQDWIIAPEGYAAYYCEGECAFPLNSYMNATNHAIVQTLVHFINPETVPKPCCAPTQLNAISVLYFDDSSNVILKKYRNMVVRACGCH
Method: as §2

[14] = biological target: T10, GDF8 (human, UniProt O14793 267-375); test: as above
T10 construct: Bought (R&D Systems #788-G8); also called hGDF8; growth and differentiation factor-8
Method: as §2

[15] = biological target: T3, Activin AC; test: as above
Method: as §2

[16] = biological target: T11, Activin B (human, UniProt P09529 293-407); test: as above
T11 construct: Homodimer of two betaB subunits; bought (R&D Systems #659-AB)
T11 chain: T1 chain 2
Method: as §2

[17] = biological target: T12, hBMP4 (human, UniProt P12644 293-408); test: as above
T12 construct: Bought protein
T12 sequence (looked up): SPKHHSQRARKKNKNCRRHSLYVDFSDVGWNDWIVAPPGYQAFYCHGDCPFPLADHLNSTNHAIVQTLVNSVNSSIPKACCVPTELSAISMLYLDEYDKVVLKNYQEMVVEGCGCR
Method: as §2

[18] = biological target: T3, Activin AC; test: SPR (Biacore), mAb captured on anti-Fc, Activin AC injected, 25 C
How it was run: as §1

[19] = biological target: T3, Activin AC; test: SPR (Biacore), mAb captured on anti-Fc, Activin AC injected, 37 C
How it was run: as §1

50 nM Ag Bound (RU) [1]: 34.6 RU
Kd [1]: 0.32 nM
koff [1]: 0.00177 s⁻¹
kon [1]: 5.53e+06 M⁻¹ s⁻¹
t1/2 [1]: 6.5 min
IC50 [M], inhibition of 100 pM Activin A in A204/CAGAx12-Luc Smad2/3-luciferase bioassay [2]: 5.6e-11 M
IC50 [M], inhibition of 30 pM Activin AB in A204/CAGAx12-Luc Smad2/3-luciferase bioassay [3]: 2.2e-09 M
IC50 [M], inhibition of 4 nM Activin AC in A204/CAGAx12-Luc Smad2/3-luciferase bioassay [4]: 6.5e-09 M
50 nM Ag Bound (RU) [5]: 45.9 RU
Kd [5]: 0.464 nM
koff [5]: 0.00425 s⁻¹
kon [5]: 9.17e+06 M⁻¹ s⁻¹
t1/2 [5]: 2.7 min
binding response (resonance units) for 200 nM ligand [6]: 63.9 RU
binding response (resonance units) for 200 nM ligand [7]: 65.2 RU
binding response (resonance units) for 200 nM ligand [8]: -0.7 RU
binding response (resonance units) for 200 nM ligand [9]: 1.1 RU
binding response (resonance units) for 200 nM ligand [10]: 0 RU
binding response (resonance units) for 200 nM ligand [11]: 1 RU
binding response (resonance units) for 200 nM ligand [12]: -2.3 RU
binding response (resonance units) for 200 nM ligand [13]: 1.5 RU
binding response (resonance units) for 200 nM ligand [14]: 0.5 RU
binding response (resonance units) for 200 nM ligand [15]: 14.2 RU
binding response (resonance units) for 200 nM ligand [16]: -1.8 RU
binding response (resonance units) for 200 nM ligand [17]: -0.7 RU
50 nM Ag Bound (RU) [18]: 18.6 RU
Kd [18]: 1.57 nM
koff [18]: 0.00205 s⁻¹
kon [18]: 1.31e+06 M⁻¹ s⁻¹
t1/2 [18]: 5.6 min
50 nM Ag Bound (RU) [19]: 21.4 RU
Kd [19]: 4.1 nM
koff [19]: 0.00599 s⁻¹
kon [19]: 1.46e+06 M⁻¹ s⁻¹
t1/2 [19]: 1.9 min
B1: H4H10442P2 (antibody, human IgG4, V domains shown)
VH: QVQLQESGPGLVKPSETLSITCTVSGGSFSSHFWTWIRQPPGKGLEWIGYLHYSGGTSYNPSLKSRVIISVDTSKNQFSLKLNSVTAADTAVYYCARARSGITFGGLIVPGSFDIWGQGTMVTVSS
VL: not shown

50 nM Ag Bound (RU) [1]: 31.9 RU
Kd [1]: 0.815 nM
koff [1]: 0.00406 s⁻¹
kon [1]: 4.99e+06 M⁻¹ s⁻¹
t1/2 [1]: 2.8 min
IC50 [M], inhibition of 100 pM Activin A in A204/CAGAx12-Luc Smad2/3-luciferase bioassay [2]: 4.7e-11 M
IC50 [M], inhibition of 30 pM Activin AB in A204/CAGAx12-Luc Smad2/3-luciferase bioassay [3]: 8.2e-09 M
IC50 [M], inhibition of 4 nM Activin AC in A204/CAGAx12-Luc Smad2/3-luciferase bioassay [4]: 5.6e-09 M
50 nM Ag Bound (RU) [5]: 41.5 RU
Kd [5]: 1.34 nM
koff [5]: 0.00817 s⁻¹
kon [5]: 6.08e+06 M⁻¹ s⁻¹
t1/2 [5]: 1.4 min
binding response (resonance units) for 200 nM ligand [6]: 53.2 RU
binding response (resonance units) for 200 nM ligand [7]: 66.7 RU
binding response (resonance units) for 200 nM ligand [8]: 0.5 RU
binding response (resonance units) for 200 nM ligand [9]: 5.3 RU
binding response (resonance units) for 200 nM ligand [10]: -0.3 RU
binding response (resonance units) for 200 nM ligand [11]: 1.8 RU
binding response (resonance units) for 200 nM ligand [12]: 3.3 RU
binding response (resonance units) for 200 nM ligand [13]: 5.7 RU
binding response (resonance units) for 200 nM ligand [14]: 0.7 RU
binding response (resonance units) for 200 nM ligand [15]: 15.2 RU
binding response (resonance units) for 200 nM ligand [16]: 2.6 RU
binding response (resonance units) for 200 nM ligand [17]: 0.8 RU
50 nM Ag Bound (RU) [18]: 12.6 RU
Kd [18]: 11.8 nM
koff [18]: 0.0122 s⁻¹
kon [18]: 1.04e+06 M⁻¹ s⁻¹
t1/2 [18]: 0.9 min
50 nM Ag Bound (RU) [19]: 14.4 RU
Kd [19]: 22.5 nM
koff [19]: 0.0216 s⁻¹
kon [19]: 959000 M⁻¹ s⁻¹
t1/2 [19]: 0.5 min
B2: H4H10446P2 (antibody, human IgG4, V domains shown)
VH: QVQLQESGPGLVKPSETLSLTCTVSGGSFSSHFWSWIRQPPGKGLEWIGYILYTGGTSFNPSLKSRVSMSVGTSKNQFSLKLSSVTAADTAVYYCARARSGITFTGIIVPGSFDIWGQGTMVTVSS
VL: not shown

50 nM Ag Bound (RU) [1]: 33 RU
Kd [1]: 0.0185 nM
koff [1]: 0.000217 s⁻¹
kon [1]: 1.17e+07 M⁻¹ s⁻¹
t1/2 [1]: 53.3 min
IC50 [M], inhibition of 100 pM Activin A in A204/CAGAx12-Luc Smad2/3-luciferase bioassay [2]: 6.1e-11 M
IC50 [M], inhibition of 30 pM Activin AB in A204/CAGAx12-Luc Smad2/3-luciferase bioassay [3]: 1e-10 M
IC50 [M], inhibition of 4 nM Activin AC in A204/CAGAx12-Luc Smad2/3-luciferase bioassay [4]: 9.3e-10 M
50 nM Ag Bound (RU) [5]: 41 RU
Kd [5]: 0.0535 nM
koff [5]: 0.000541 s⁻¹
kon [5]: 1.01e+07 M⁻¹ s⁻¹
t1/2 [5]: 21.3 min
binding response (resonance units) for 200 nM ligand [6]: 69.1 RU
binding response (resonance units) for 200 nM ligand [7]: 95 RU
binding response (resonance units) for 200 nM ligand [8]: 0.3 RU
binding response (resonance units) for 200 nM ligand [9]: 5.7 RU
binding response (resonance units) for 200 nM ligand [10]: -0.6 RU
binding response (resonance units) for 200 nM ligand [11]: 3 RU
binding response (resonance units) for 200 nM ligand [12]: -1.7 RU
binding response (resonance units) for 200 nM ligand [13]: 6.4 RU
binding response (resonance units) for 200 nM ligand [14]: -0.1 RU
binding response (resonance units) for 200 nM ligand [15]: 34.8 RU
binding response (resonance units) for 200 nM ligand [16]: 0.4 RU
binding response (resonance units) for 200 nM ligand [17]: -0.6 RU
50 nM Ag Bound (RU) [18]: 23.6 RU
Kd [18]: 8.86 nM
koff [18]: 0.0109 s⁻¹
kon [18]: 1.23e+06 M⁻¹ s⁻¹
t1/2 [18]: 1.1 min
50 nM Ag Bound (RU) [19]: 25.3 RU
Kd [19]: 16.7 nM
koff [19]: 0.02 s⁻¹
kon [19]: 1.2e+06 M⁻¹ s⁻¹
t1/2 [19]: 0.6 min
B3: H4H10430P (antibody, human IgG4, V domains shown)
VH: EVQLVESGGGLVQPGRSLRLSCKASGFAFDDFAMHWVRQAPGKGLEWVSGIVWNSGDIGYADSVKGRFTISRDNAKNSLYLQLNSLRTEDTALYFCVKDMVRGLMGFNYYGMDVWGQGTTVTVSS
VL: EIVLTQSPATLSLSPGERATLSCRASQTISTYLVWYRQRPGQAPSLLIYDASNRATDIPARFSGSGSGTDFTLTISSLEPEDFAVYYCQQRSNWPITFGQGTRLEIK
